In patent US20110142842A1 (MEDINNOVA, published 2011):

What follows are binders tested against HLA-A*0201 (human, UniProt A*02:01) (assay: REVEAL MHC binding assay (ProImmune)).

Binder	% Pass/fail control
WLSAAPTSL [Peptide ID 102 WLSAAPTSL (CD33)]	207 % of pass/fail control
FMQPLFLVA [Peptide ID 62 FMQPLFLVA (HA-1)]	215 % of pass/fail control
HLLGPWLLL [Peptide ID 94 HLLGPWLLL (CD22)]	212 % of pass/fail control
ILYPINILI [Peptide ID 48 ILYPINILI (CD11a)]	214 % of pass/fail control
GLADVAVGA [Peptide ID 64 GLADVAVGA (CD11a)]	206 % of pass/fail control
VLWPRACWT [Peptide ID 100 VLWPRACWT (CD50)]	139 % of pass/fail control
LLEGNLVTL [Peptide ID 76 LLEGNLVTL (CD64)]	173 % of pass/fail control
LLWAGALAM [Peptide ID 86 LLWAGALAM (CD33)]	321 % of pass/fail control
LLIILLAEV [Peptide ID 68 LLIILLAEV (CD53)]	99.2 % of pass/fail control
FIYGVILTA [Peptide ID 60 FIYGVILTA (TCR_TV)]	149 % of pass/fail control
IMSDSNYVV [Peptide ID 65 IMSDSNYVV (FLT3)]	220 % of pass/fail control
FLYIGIITI [Peptide ID 4 FLYIGIITI (CD53)]	136 % of pass/fail control
RLYQFLLDL [Peptide ID 66 RLYQFLLDL (PU.1)]	234 % of pass/fail control
VLLVVLLVV [Peptide ID 90 VLLVVLLVV (CD5)]	71.5 % of pass/fail control
FLLLTISLL [Peptide ID 88 FLLLTISLL (CD52)]	302 % of pass/fail control
KMAEAYSEI [Peptide ID 46 KMAEAYSEI (TCR_TV)]	200 % of pass/fail control
RLFEQVMRI [Peptide ID 43 RLFEQVMRI (MPO)]	192 % of pass/fail control
TLWQLVEYL [Peptide ID 97 TLWQLVEYL (ZAP-70)]	198 % of pass/fail control
YLRPGQAAA [Peptide ID 52 YLRPGQAAA (CD18)]	125 % of pass/fail control
WLQAQKVQV [Peptide ID 63 WLQAQKVQV (TdT)]	190 % of pass/fail control
ALARGLPGA [Peptide ID 53 ALARGLPGA (CD7)]	215 % of pass/fail control
LLLSGAARA [Peptide ID 51 LLLSGAARA (PR3)]	178 % of pass/fail control

Binder	% Pass/fail control
KLLLALAGV [Peptide ID 67 KLLLALAGV (MPO)]	216 % of pass/fail control
EMDEELHYA [Peptide ID 54 EMDEELHYA (CD33)]	117 % of pass/fail control
VLLRWEEEL [Peptide ID 89 VLLRWEEEL (CD50)]	184 % of pass/fail control
LMGTLIAKV [Peptide ID 83 LMGTLIAKV (HA-1)]	316 % of pass/fail control
VLFHNLPSL [Peptide ID 49 VLFHNLPSL (CD53)]	216 % of pass/fail control
FLQDTFPQQ [Peptide ID 70 FLQDTFPQQ (CD127)]	49.8 % of pass/fail control
GLYQGLSTA [Peptide ID 41 GLYQGLSTA (TCR_TV)]	107 % of pass/fail control
NVAELLHQV [Peptide ID 101 NVAELLHQV (ZAP-70)]	200 % of pass/fail control
FLDCQIHRV [Peptide ID 7 FLDCQIHRV (CD127)]	224 % of pass/fail control
LVAPRFLEV [Peptide ID 85 LVAPRFLEV (CD50)]	340 % of pass/fail control
VLTPAQLNV [Peptide ID 44 VLTPAQLNV (MPO)]	175 % of pass/fail control
ELSEDSSNV [Peptide ID 103 ELSEDSSNV (CD18)]	139 % of pass/fail control
ALASVLLAL [Peptide ID 73 ALASVLLAL (PR3)]	139 % of pass/fail control
ELLDVSWLI [Peptide ID 74 ELLDVSWLI (TdT)]	220 % of pass/fail control
LMSFFILLL [Peptide ID 104 LMSFFILLL (CD53)]	161 % of pass/fail control
YLALGDQML [Peptide ID 91 YLALGDQML (CD50)]	197 % of pass/fail control
LLLTISLLV [Peptide ID 81 LLLTISLLV (CD52)]	250 % of pass/fail control
AIWLFIFNV [Peptide ID 80 AIWLFIFNV (CD19)]	199 % of pass/fail control
SMSEEVTYA [Peptide ID 56 SMSEEVTYA (CLL-1)]	158 % of pass/fail control
LLLTNTFGA [Peptide ID 92 LLLTNTFGA (CD11a)]	196 % of pass/fail control
KMIMNSLSL [Peptide ID 96 KMIMNSLSL (CD20)]	213 % of pass/fail control
YLAVGIMFL [Peptide ID 5 YLAVGIMFL (CD64)]	155 % of pass/fail control

Binder	% Pass/fail control
TLPQLFLKV [Peptide ID 72 TLPQLFLKV (FLT3)]	182 % of pass/fail control
YISRDTCIV [Peptide ID 69 YISRDTCIV (HA-2)]	133 % of pass/fail control
LLAEVTLAI [Peptide ID 47 LLAEVTLAI (CD53)]	199 % of pass/fail control
RMPWYHSSL [Peptide ID 95 RMPWYHSSL (ZAP-70)]	85.6 % of pass/fail control
GLMATPAKL [Peptide ID 77 GLMATPAKL (MPO)]	218 % of pass/fail control
LLIHNNFGV [Peptide ID 42 LLIHNNFGV (CD53)]	191 % of pass/fail control
GMDRYLIYV [Peptide ID 9 GMDRYLIYV (CD18)]	170 % of pass/fail control
KLKDLFTEL [Peptide ID 98 KLKDLFTEL (CD11a)]	171 % of pass/fail control
ILTALFLRV [Peptide ID 61 ILTALFLRV (TCR_TV)]	159 % of pass/fail control
YLGYTVTWL [Peptide ID 93 YLGYTVTWL (CD11a)]	239 % of pass/fail control
SMEEAKQLV [Peptide ID 71 SMEEAKQLV (MPO)]	169 % of pass/fail control
YLIFCLCSL [Peptide ID 50 YLIFCLCSL (CD19)]	71.2 % of pass/fail control
LLLLLIFIV [Peptide ID 58 LLLLLIFIV (CD11a)]	6.4 % of pass/fail control
FLLGLGLGV [Peptide ID 8 FLLGLGLGV (CD7)]	202 % of pass/fail control
SICEGTVEV [Peptide ID 59 SICEGTVEV (CD5)]	130 % of pass/fail control
GMVFSLLQV [Peptide ID 99 GMVFSLLQV (CD127)]	175 % of pass/fail control
SLFEGIYTI [Peptide ID 6 SLFEGIYTI (FLT3)]	183 % of pass/fail control
GMGWAAFNL [Peptide ID 45 GMGWAAFNL (CD50)]	193 % of pass/fail control
LIQPFMFRL [Peptide ID 84 LIQPFMFRL (MPO)]	311 % of pass/fail control
NLEEDAYWV [Peptide ID 57 NLEEDAYWV (CD11a)]	64.9 % of pass/fail control
LMIPAGIYA [Peptide ID 40 LMIPAGIYA (CD20)]	142 % of pass/fail control
KLMSPKLYV [Peptide ID 55 KLMSPKLYV (CD19)]	232 % of pass/fail control
